This note sets out measurements from article PMC7138851, “Quantitative assessment of the determinant structural differences between redox-active and inactive glutaredoxins” (Nature Communications, 2020).

What all share (experiment): purified protein, by the assay type
Set-up in all cases: GSSCys oxidoreductase assay, steady-state kinetics, coupled NADPH consumption at 340 nm, pH 8.0, 25 °C
Holding throughout (details): pH 8.0; 25.0 °C

Substrate in data set [1]: N[C@@H](CCC(=O)N[C@@H](CSSC[C@H](N)C(=O)O)C(=O)NCC(=O)O)C(=O)O
As to the method: (§1) Steady-state kinetics of wild-type and mutant ScGrx7 and HsGrx5^C122S in the GSSCys and [compound left out] assays were determined spectrophotometrically by monitoring the consumption of NADPH at 340 nm and 25 °C using a thermostated Jasco V-650 UV/vis spectrophotometer[11],[19],[25]. Fresh stock solutions of NADPH, GSH, GR, and GSSCys or [compound left out] were prepared in assay buffer containing 0.1 M Tris/HCl, 1 mM EDTA, pH 8.0 before each experiment. Both assays were performed with 0.1 mM NADPH and 1 U/ml ScGR. The following final protein concentrations were used for Y110F/H/A (5–150 nM), D144A/K (10 nM), E147A/K (10 nM), R153A/E (25–50 nM), ScGrx7^WP (20 nM), ScGrx7^loop (up to 1.4 µM), ScGrx7^WP+loop (up 2.6 µM), HsGrx5^C122S (up to 15 µM), HsGrx5^RR (up to 12 µM), HsGrx5^loop (up to 1.6 µM), and HsGrx5^RR+loop (up to 4.0 µM). For the GSSCys assays, GSH was varied between 50 µM and 1.5 mM at fixed GSSCys concentrations (25, 50, 100, and 150 µM). NADPH, GSH, and GR were mixed in assay buffer before Grx was added and a baseline was recorded for 30 s. All GSSCys assays were started by the addition of GSSCys. The absorbance of a reference cuvette containing all components but no Grx was measured in parallel and subtracted from the obtained Grx activity. For the [compound left out] assays, GSH was varied between 100 µM and 2.0 mM at fixed concentrations of [compound left out] (0.18, 0.37, 0.55, and 0.74 mM). NADPH, GSH, and [compound left out] were preincubated in assay buffer for 2 min before GR was added and a baseline was recorded for 30 s. All [compound left out] assays were started by the addition of enzyme. Kinetic data were analyzed in Excel and SigmaPlot 13 by nonlinear and linear regression according to Michaelis–Menten, Lineweaver–Burk, Eadie–Hofstee, and Hanes theory[11],[19],[25]. 13 Supplementary Figure 7 Supplementary Figure 7 | GSSCys assay steady-state kinetics of ScGrx7 wild-type enzyme and D144X mutants. (a) Michaelis-Menten plots of the GSH-dependent reaction velocity at different initial concentrations of GSSCys. […]

Substrate in data set [2]: N[C@@H](CCC(=O)N[C@@H](CS)C(=O)NCC(=O)O)C(=O)O
On the procedure: as §1

Substrate in data set [3]: N[C@@H](CCC(=O)N[C@@H](CS)C(=O)NCC(=O)O)C(=O)O
On the procedure: as §1
The source holds these as a separate data set.

Substrate in data set [4]: N[C@@H](CCC(=O)N[C@@H](CS)C(=O)NCC(=O)O)C(=O)O
On the procedure:
as §1
The source holds these as a separate data set.

Substrate in data set [5]: N[C@@H](CCC(=O)N[C@@H](CSSC[C@H](N)C(=O)O)C(=O)NCC(=O)O)C(=O)O
On the procedure: as §1
The source holds these as a separate data set.

Substrate in data set [6]: N[C@@H](CCC(=O)N[C@@H](CS)C(=O)NCC(=O)O)C(=O)O
On the procedure: as §1
This is another data set of the same source.

Substrate in data set [7]: N[C@@H](CCC(=O)N[C@@H](CS)C(=O)NCC(=O)O)C(=O)O
On the procedure:
as §1
The source holds these as a separate data set.

Substrate in data set [8]: N[C@@H](CCC(=O)N[C@@H](CSSC[C@H](N)C(=O)O)C(=O)NCC(=O)O)C(=O)O
On the procedure:
as §1
This is another data set of the same source.

Substrate in data set [9]: N[C@@H](CCC(=O)N[C@@H](CSSC[C@H](N)C(=O)O)C(=O)NCC(=O)O)C(=O)O
As to the method:
as §1
This is another data set of the same source.

Usually Km stands for the concentration of substrate that gives half-maximal velocity. One may read the kcat as the number of substrate molecules converted per active site and unit of time at saturation. Usually kcat/Km stands for the second-order rate constant that governs catalysis at low substrate concentration.

B1: ScGrx7 (Saccharomyces cerevisiae S288C) (protein)
chain: SVNESITTHHPDSLVTFDNSGNAPGTHQSVHDTVNTQDKEAEEVDKNSGDAEFDAAAEYNKIMEQSPMIVFSKTGCPYSKKLKALLTNSYTFSPSYYVVELDRHEHTKELQDQIEKVTGRRTVPNVIIGGTSRGGYTEIAELHKNDELLDSFKKWSDGAFTVKANSQSESA
notes: E. coli XL1-Blue, pQE30; N-terminal MRGS(H)6 tag
In the case of B1, the Km in data set [1] was 257 µM; in data set [2], 744 µM; in [3], 244 ± 27.1 µM; in data set [4], 286 ± 45 µM; in data set [5], 427 µM; in data set [6] it was 1479 µM. Besides, the Km in [7] was 291 ± 17.6 µM; in data set [8] it was 266 ± 129 µM; in [9] it was 320 ± 91 µM. The kcat in [2] was found to be 206 s⁻¹; in data set [3], 68 ± 2.4 s⁻¹; in data set [4], 79.9 ± 27 s⁻¹; in [6] it was 334 s⁻¹; in data set [7] it was 75.2 ± 1.6 s⁻¹; in data set [8] it was 163 ± 54.8 s⁻¹. The kcat in data set [9] worked out at 239 ± 54 s⁻¹. For the same protein, the kcat/Km in data set [3] was found to be 279000 M⁻¹ s⁻¹; in data set [4], 273000 M⁻¹ s⁻¹; in [7], 258000 M⁻¹ s⁻¹; in data set [8], 612000 M⁻¹ s⁻¹; in [9], 757000 M⁻¹ s⁻¹.
